Measurements reported in paper PMC5454392, “Selective BET bromodomain inhibition as an antifungal therapeutic strategy” (Nature Communications, 2017).
Numbered stars: 1 amine (or outer) side, 2 acyl side, 3 side chain; on linkers, the order of the positions; unused ones are H or OH. Square brackets hold non-standard residues; d marks the D form. Ends that are not written are not given here. Arg(Me2a) = CN(C)C(=N)NCCC[C@H](N)C(=O)O; Kac = CC(=O)NCCCC[C@H](N[*:1])C(=O)[*:2]; Lys(Me3) = C[N+](C)(C)CCCC[C@H](N)C(=O)O; Arg(Me2s) = CN=C(NC)NCCC[C@H](N)C(=O)O; pT = C[C@@H](OP(=O)(O)O)[C@H](N)C(=O)O; Lys(Me2) = CN(C)CCCC[C@H](N)C(=O)O; pS = N[C@@H](COP(=O)(O)O)C(=O)O; Me2a = not defined here; me2a = not defined here

How the values were obtained:
[1] = biological target: T1, CaBdf1 BD1 (GST-tagged, wild-type) (Candida albicans (strain SC5314 / ATCC …, UniProt Q5A4W8)); test: histone peptide array (Active Motif MODified), 1 uM GST-tagged bromodomain, anti-GST detection, normalized mean intensity
T1 chain: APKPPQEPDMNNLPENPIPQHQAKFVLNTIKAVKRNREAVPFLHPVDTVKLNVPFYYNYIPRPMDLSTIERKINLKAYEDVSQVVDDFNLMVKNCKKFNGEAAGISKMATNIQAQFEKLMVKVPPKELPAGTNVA

[2] = biological target: T2, CaBdf1 BD2 (GST-tagged, wild-type) (Candida albicans (strain SC5314 / ATCC …, UniProt Q5A4W8)); test: as above
T2 chain: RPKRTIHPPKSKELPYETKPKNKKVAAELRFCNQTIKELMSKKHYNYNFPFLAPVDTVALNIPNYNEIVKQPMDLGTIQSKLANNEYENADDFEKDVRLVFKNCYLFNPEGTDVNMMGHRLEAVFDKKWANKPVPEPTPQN

B1: H2B 1-19 (peptide)
chain: PDPAKSAPAPKKGSKKAVT
modifications: not fully specified
For B1, the binding score [1] was 0.00435 and the binding score [2] was 0.00074.

B2: H3 16-35 (peptide)
chain: PRKQLATKAARKSAPATGG
modifications: P R K Q L A T K A A Rme2a Kme2 S A P A T G G
B2 showed a binding score [1] of 0.00363 and a binding score [2] of 0.00555.

B3: H4 1-19 (peptide)
chain: SGRGKGGKGLGKGGAKRHR
modifications: S G R G K G G Kac G L G Kac G G A K R H R
For B3, the binding score [1] was 0.0707 and the binding score [2] was 0.0418.

B4: H3 1-19 (peptide)
chain: AR(Me2a)[pT]K(Me2)QTARKSTGGKAPRKQ
modifications: reading uncertain
Binder B4 has a binding score [1] of 0.00181 and a binding score [2] of 0.

B5: H3 1-19 (peptide)
chain: ARTKQTARKSTGGKAPRKQ
modifications: A R T K Q T A R Kme2 S T G G K A P R K Q
B5 gave a binding score [1] of 0.00109 and a binding score [2] of 0.00296.

B6: H3 26-45 (peptide)
chain: RKSAPATGGVKKPHRYRPG
modifications: R K S A P A T G G V Kme2 K P H R Y R P G
For B6, the binding score [1] was 0.0058 and the binding score [2] was 0.00555.

B7: H3 1-19 (peptide)
chain: AR[pT]K(Ac)QTARKSTGGKAPRKQ
Work on B7 yielded a binding score [1] of 0.00725 and a binding score [2] of 0.00333.

B8: H2B 1-19 (peptide)
chain: PDPAKSAPAPKKGSK(Ac)KAVT
For B8, the binding score [1] was 0.0199 and the binding score [2] was 0.00481.

B9: H3 1-19 (peptide)
chain: AR(Me2a)TK(Me2)QTARKSTGGKAPRKQ
modifications: reading uncertain
Work on B9 yielded a binding score [1] of 0.00109 and a binding score [2] of 0.0037.

B10: H4 1-19 (peptide)
chain: SGRGKGGKGLGKGGAKRHR
modifications: S G Rme2s G Kac G G Kac G L G K G G A K R H R
B10 showed a binding score [1] of 0.0334 and a binding score [2] of 0.0322.

B11: H3 1-19 (peptide)
chain: A[Arg(Me2a)]T[Lys(Me3)]QTA[Arg(Me2s)][Lys(Me2)]STGGKAPRKQ
With B11 the binding score [1] was 0.00326 and the binding score [2] was 0.00592.

B12: H3 1-19 (peptide)
chain: ARTKQTARKSTGGKAPRKQ
modifications: A Rme2s T Kme2 Q T A Rme2s K S T G G K A P R K Q
For B12, the binding score [1] was 0.00181 and the binding score [2] was 0.00629.

B13: H2a 1-19 (peptide)
chain: [pS]GRGKQGGKARAKAKSRSS
Work on B13 yielded a binding score [1] of 0.0131 and a binding score [2] of 0.00592.

B14: H3 1-19 (peptide)
chain: A[Arg(Me2a)]TK(Ac)QTA[Arg(Me2s)][Lys(Me3)]STGGKAPRKQ
Binder B14 has a binding score [1] of 0.00653 and a binding score [2] of 0.0122.

B15: H3 1-19 (peptide)
chain: ARTKQTARKSTGGKAPRKQ
modifications: A R T K Q T A R Kme3 S T G G K A P R K Q
Binder B15 has a binding score [1] of 0.0029 and a binding score [2] of 0.00222.

B16: H3 16-35 (peptide)
chain: PRKQLATKAARK(Ac)SAPATGG
B16 showed a binding score [1] of 0.0138 and a binding score [2] of 0.0307.

B17: H4 1-19 (peptide)
chain: SGRGKGGKGLGKGGAKRHR
modifications: pS G Rme2s G Kac G G Kac G L G K G G A K R H R
For B17, the binding score [1] was 0.054 and the binding score [2] was 0.0352.

B18: H3 1-19 (peptide)
chain: ARTKQTARKSTGGKAPRKQ
modifications: A Rme2a T Kme3 Q T A Rme2s Kme1 S T G G K A P R K Q
In the case of B18, the binding score [1] is reported as 0.00326 and the binding score [2] is reported as 0.00407.

B19: H3 1-19 (peptide)
chain: AR(Me2a)TK(Me)QTAR(Me2s)K(Ac)STGGKAPRKQ
modifications: reading uncertain
B19 gave a binding score [1] of 0.0341 and a binding score [2] of 0.0037.

B20: H2B 1-19 (peptide)
chain: PDPAK(Ac)SAPAPKK(Ac)G[pS]K(Ac)KAVT
In the case of B20, the binding score [1] is reported as 0.0982 and the binding score [2] is reported as 0.232.

B21: H3 1-19 (peptide)
chain: A[Arg(Me2s)][pT]K(Ac)QTARKSTGGKAPRKQ
With B21 the binding score [1] was 0.00761 and the binding score [2] was 0.00333.

B22: H3 1-19 (peptide)
chain: ARTKQTARKSTGGKAPRKQ
modifications: A R T K Q T A Rme2a Kme2 pS pT G G K A P R K Q
B22 was tested, and the binding score [1] was 0.00471 and the binding score [2] was 0.00555.

B23: H2a 1-19 (peptide)
chain: [pS]GRGK(Ac)QGGKARAK(Ac)AKSRSS
Binder B23 has a binding score [1] of 0.0964 and a binding score [2] of 0.0148.

B24: H3 1-19 (peptide)
chain: ARTKQTARKSTGGKAPRKQ
modifications: A Rme2a T Kme2 Q T A Rme2a Kme2 S T G G K A P R K Q
B24 was tested, and the binding score [1] was 0.00399 and the binding score [2] was 0.00555.

B25: H2B 1-19 (peptide)
chain: PDPAK(Ac)SAPAPKK(Ac)G[pS]KKAVT
B25 was tested, and the binding score [1] was 0.00979 and the binding score [2] was 0.00481.

B26: H3 16-35 (peptide)
chain: PRKQLATKAAR(Me2s)K(Me3)SAPATGG
B26 showed a binding score [1] of 0.00181 and a binding score [2] of 0.0037.

B27: H3 1-19 (peptide)
chain: ARTKQTARKSTGGKAPRKQ
modifications: A Rme2a T Kme1 Q T A Rme2s Kme3 S T G G K A P R K Q
Binder B27 has a binding score [1] of 0.00471 and a binding score [2] of 0.00629.

B28: H3 1-19 (peptide)
chain: ARTK(Me)QTARKSTGGKAPRKQ
Work on B28 yielded a binding score [1] of 0.000725 and a binding score [2] of 0.00185.

B29: H3 16-35 (peptide)
chain: PRKQLATKAAR(Me2s)K(Me2)[pS]APATGG
B29 was tested, and the binding score [1] was 0.00363 and the binding score [2] was 0.00074.

B30: H3 1-19 (peptide)
chain: ART[Kac]QTA[Arg(Me2a)][Lys(Me2)]STGGKAPRKQ
B30 was tested, and the binding score [1] was 0.00761 and the binding score [2] was 0.00555.

B31: H3 1-19 (peptide)
chain: ARTKQTARKSTGGKAPRKQ
modifications: A Rme2s T Kme3 Q T A Rme2a Kme1 S T G G K A P R K Q
Binder B31 has a binding score [1] of 0.0272 and a binding score [2] of 0.00222.

B32: H3 1-19 (peptide)
chain: ARTKQTARKSTGGKAPRKQ
modifications: A R T Kme1 Q T A Rme2a Kme3 S T G G K A P R K Q
Work on B32 yielded a binding score [1] of 0.00254 and a binding score [2] of 0.00333.

B33: H3 1-19 (peptide)
chain: ARTKQTARKSTGGKAPRKQ
modifications: A Rme2s T Kac Q T A Rme2s Kme1 S T G G K A P R K Q
Work on B33 yielded a binding score [1] of 0.00653 and a binding score [2] of 0.00407.

B34: H4 1-19 (peptide)
chain: SGRGKGGKGLGKGGAKRHR
modifications: pS G Rme2a G Kac G G K G L G K G G A K R H R
B34 gave a binding score [1] of 0.0105 and a binding score [2] of 0.00444.

B35: H3 1-19 (peptide)
chain: ARTKQTARKSTGGKAPRKQ
modifications: A R T K Q T A R Kme3 S pT G G K A P R K Q
In the case of B35, the binding score [1] is reported as 0.00363 and the binding score [2] is reported as 0.0037.

B36: H3 1-19 (peptide)
chain: ARTK(Me)QTAR(me2a)K(Me)STGGKAPRKQ
modifications: reading uncertain
In the case of B36, the binding score [1] is reported as 0.00508 and the binding score [2] is reported as 0.00407.

B37: H3 1-19 (peptide)
chain: ARTKQTARKSTGGKAPRKQ
modifications: A Rme2a T Kme3 Q T A R K S T G G K A P R K Q
In the case of B37, the binding score [1] is reported as 0.0109 and the binding score [2] is reported as 0.00259.

B38: H3 1-19 (peptide)
chain: ARTKQTARKSTGGKAPRKQ
modifications: A R T K Q T A R Kme1 S pT G G K A P R K Q
B38 showed a binding score [1] of 0.00326 and a binding score [2] of 0.0037.

B39: H3 16-35 (peptide)
chain: PRKQLATKAAR(Me2a)K(Me2)[pS]APATGG
modifications: reading uncertain
B39 showed a binding score [1] of 0.00145 and a binding score [2] of 0.00555.

B40: H3 16-35 (peptide)
chain: PRKQLATKAA[Arg(Me2a)]KSAPATGG
Binder B40 has a binding score [1] of 0.00326 and a binding score [2] of 0.00148.

B41: H3 1-19 (peptide)
chain: ARTKQTARKSTGGKAPRKQ
modifications: A R T K Q T A R Kme2 pS T G G K A P R K Q
In the case of B41, the binding score [1] is reported as 0.00326 and the binding score [2] is reported as 0.00333.

B42: H3 1-19 (peptide)
chain: ARTKQTA[Arg(Me2a)]K(Me)[pS][pT]GGKAPRKQ
In the case of B42, the binding score [1] is reported as 0.00471 and the binding score [2] is reported as 0.0037.

B43: H3 1-19 (peptide)
chain: ARTKQTARKSTGGKAPRKQ
modifications: A R T Kme3 Q T A Rme2s Kme3 S T G G K A P R K Q
Binder B43 has a binding score [1] of 0.00399 and a binding score [2] of 0.00407.

B44: H3 1-19 (peptide)
chain: ARTKQTARKSTGGKAPRKQ
modifications: A Rme2a T Kme1 Q T A Rme2s Kme2 S T G G K A P R K Q
B44 showed a binding score [1] of 0.00218 and a binding score [2] of 0.00222.

B45: H2B 1-19 (peptide)
chain: PDPAK(Ac)SAPAPKKGSK(Ac)KAVT
With B45 the binding score [1] was 0.0323 and the binding score [2] was 0.00962.

B46: H2a 1-19 (peptide)
chain: SGRGK(Ac)QGGKARAKAKSRSS
B46 gave a binding score [1] of 0.021 and a binding score [2] of 0.0074.

B47: H3 1-19 (peptide)
chain: AR[pT]K(Me)QTARKSTGGKAPRKQ
With B47 the binding score [1] was 0.00471 and the binding score [2] was 0.00296.

B48: H3 1-19 (peptide)
chain: AR[pT]K(Me3)QTARKSTGGKAPRKQ
In the case of B48, the binding score [1] is reported as 0.00435 and the binding score [2] is reported as 0.00296.

B49: H3 1-19 (peptide)
chain: ARTKQTARKSTGGKAPRKQ
modifications: A R T K Q T A Rme2s Kme2 pS T G G K A P R K Q
B49 was tested, and the binding score [1] was 0.00363 and the binding score [2] was 0.00333.

B50: H3 1-19 (peptide)
chain: A[Arg(Me2s)]TK(Ac)QTARK(Me)STGGKAPRKQ
For B50, the binding score [1] was 0.00798 and the binding score [2] was 0.00333.
